Data published in the Human Domainome abundance scans (Beltran et al. 2025).

B1: DNA topoisomerase 3-alpha, residues 812 to 851; numbered along this chain, Q13472 (parent)
chain: TCNCGQEAVLLTVRKEGPNRGRQFFKCNGGSCNFFLWADS
B2: Zinc finger homeobox protein 3, residues 2147 to 2202; numbered along this chain, Q15911 (parent)
chain: RPRTRITDDQLRVLRQYFDINNSPSEEQIKEMADKSGLPQKVIKHWFRNTLFKERQ

Variants of: B1
Assay: abundance fitness (aPCA) (normalised: wild type 0, dead -1); higher = more abundant; growth selection in yeast, the domain comes from the species named
Settings: Homo sapiens

Abundance fitness: each site, then its substitutions
N3: L -0.32; D -0.006; R -0.539; G -0.739
Q6: R 0.038; V -0.338; G -0.182; A 0.229
V13: S -0.234
T12: S -0.475; A -0.59; Q -0.24; K -0.347; H -0.383; R -0.437; P -0.528; Y -0.356; V -0.47; C -0.39; W -0.721; E -0.722
R20: H 0.199; W -0.271; D 0.22; Y 0.007; P -0.227; C -0.549; G -0.171; E -0.039; S -0.167
A8: F -1; S -0.369; P 0.309; R -0.543; W -0.367; M -0.172; E -0.644; D -0.903; L -0.238
R14: V -0.037; M 0.06; L -0.099; Q 0.001; S -0.094; Y -0.052; C -0.15; N -0.166; P -0.312; A -0.006; T -0.052; K 0.089; W -0.075; G -0.092; E 0.001
G21: R -0.643; I -0.787; S -0.469; A -0.367; N -0.208; W -0.89; V -0.763; Q -0.614
K15: M -0.066; A -0.282; L -0.325; R 0.108; W -0.126; D 0.06; T 0.067; F -0.136; C -0.342; G 0.318; N 0.031; E 0.105; Y -0.299
G17: P -0.89; I -0.263; V -0.675; R -0.665; W -0.684; L -0.606; A -0.676; Q -0.681
L10: E -0.168; S -0.33; A -0.284; T -0.068; K -0.065; R -0.126; V -0.357; G -0.474
V9: R -0.154; L 0.12; G -0.355; P -0.227; C -0.226; Q -0.04; S -0.194
P18: M -0.336; W -0.716; V -0.149; L -0.352; C -0.482; H -0.353; A -0.058; R -0.252
E7: S -0.233; H -0.142; P -0.023; R -0.18; G -0.221
C32: P -1.36; G -1.07; R -0.934
C2: F -0.827; G -0.601; S -0.593
G30: L -0.473; V -0.574; Q -0.265; W -0.287; S -0.304; A -0.381
L11: W -0.072; V 0.031; R 0.049; A 0.012; S 0.008; T 0.027; Q 0.054; C -0.208; G 0.041
C4: L -1.24; V -1.09; R -0.907; G -1.3
G5: V -0.714; M -0.267; Q -0.259; S -0.377; R -0.467; H -0.419; A -0.437; L -0.666; K -0.263; C -0.484
E16: K -0.071; P -0.196; S -0.344; C -0.342; T -0.13; G -0.266; R -0.165; A -0.185; L -0.246; Y -0.421; V -0.5; N -0.018
S31: D 0.077; M -0.13; I -0.209; A -0.072; K 0.112; L -0.176; C -0.239; H 0.092; Q 0.055; T 0.114; W -0.273; G -0.071; R 0.065
Q23: D 0.021; H 0.03; T -0.219; G -0.21; W -0.574
G29: P -0.571; V -0.074; R -0.093; T -0.371; D 0; A 0.121
N28: R 0.131; I 0.137; V -0.136; L -0.195; S -0.09; T -0.043; A 0.075; W 0.079
T1: Q -0.24; W -0.858
K26: R 0.025; S -0.011; C -0.13; M -0.232; L -0.318; A -0.001; V -0.266; G -0.004
C27: M -0.789; L -0.984; V -1.09; H -0.753; R -1; G -1.19; A -0.44; E -0.53; T -0.86
N19: T -0.075; S -0.168; M 0.085; A -0.509; V -0.54; R -0.777; H 0.157; W -0.454; E -0.222; L -0.195; G -0.537; D 0.069
R22: M -0.677; W -0.629; Q -0.623; S -0.513; L -0.322; N -0.459; A -0.401; K 0.007; G -0.565; T -0.438
F25: V -0.509; K -0.413; W -0.123; R -0.412; M -0.149

Variants of: B2
Assay: as above
Settings: Homo sapiens

Abundance fitness, by site and new letter:
T50: S -0.016; V -0.078; P -0.335; Q -0.16; R -0.068
E54: V -0.159; S -0.128; R -0.101; D 0.046; C -0.149; L -0.127; I 0.235; T -0.048; H 0.085; Q 0.04; M -0.107; K -0.344; P -0.367; Y -0.277; G -0.291
Q56: G -0.419; H -0.5; D -0.844; R 0.166; A 0.09; T -0.298; P -0.261; S -0.57
F52: G 0.09; E -0.015; H -0.189; A 0.074; R 0.148; M 0.101; L 0.026; N 0.069; C 0.01; T 0.181; S -0.029; I -0.296; D -0.098; W -0.161; K 0.185; V 0.05; P -0.059
R55: F -0.146; G -0.054; P -0.343; D 0.114; M -0.101; E -0.173; C -0.313; Y -0.195; H 0.013; A -0.139; Q -0.054; L -0.179; T -0.206; N -0.356; K -0.175; W -0.396; I -0.096
L51: I -0.232; N -0.014; W -0.34; F -0.214; P -0.224; T -0.059; H 0.016; S 0.015; K 0.244; R -0.013; V -0.119; M 0.047; Q 0.044; C -0.088; G -0.073; A -0.037; Y -0.007; E -0.116
K53: Y 0.141; E -0.006; N -0.041; P -0.192; D -0.18; R -0.033; T 0.017; H -0.07; Q 0.055; W -0.299; M 0.09; A 0.017; I -0.124; L -0.163; S -0.056; F -0.195; V -0.167; C -0.269
